B2: Noc1p (recombinant, untagged) (natural protein)
chain: MSENNGNPLDLSSLRNKISSKLRDNNSKKAKKTHKGKDVKASSNSKKVNEDIRREALALGASEEDLKLIQGLSDDDDAKSEQEFDAVADEDADDKGFKNDLQNFMKNVGFDQHKLEDVDDDDIEEESTSSKESKIPAQEKEHAQSNIASSTIEKTSQESIDNGSEQEENTVEEANLSSDQEPESESAEKEKKEEKDGGLITQTTIISSDKLIIPYDKPWYEIPLDPQVGQNDDVEELSKEQIEKLFERGKQTLEADNQTYYEEFTKDSSQAKFMSQILSDGTLNDKISAVTLLIQDSPLHNTKSLETLVSYCGKKSRNSALQSLNALKDLFLNGLLPNRKLRYFKNQPGLSMMLNKKTLAIFYFEDYLKKLFFRVLEVLEVLSHDPIIHVRLQILNHVFDLLTNQPEQEFNLLRLGVNKIGDIDSKVSSKASYLLLKLEQAHPNMKSIVIDAIVDIALRPNADYHTTYYSVITLNQTILKRSEDSVANKLVKTYFTLFEKFLINTDKDNTNGVVKSNSKSYEEKRKKNFKKGKHGGKSVKIEKTENEVLDEKNSKLFSALLTGINRAFPFAQIPASVYEVHMETLFKITHSSNFNTSIQALVLINQVTVKAKLNSDRYYRTLYESLFDPRLVNSSKQGIYLNLLYKSLKQDALNVERVEAFVKRILQVCSHWLNVGTITGFFFLLIQLAKTVPQIKNLLTNTPVDYEYESDAEEEQGDKDIKRKEYDGRKRDPKFANAEKSSLWEINNFINHFHPTVKTYANAYVTGETEQIAKPDLGLFTLSHFLDRFVYRSAKQTNTARGTSIMQPLFSGSRVNDSVLVKASDIMHDQGPVNTEDWLTKKVEDIKPEDKFFYQYFTTKKTADGKGKKSNKASNFDSDDEMDENEIWSALVKSRPDVEDDSDDSELDFAEDDFSDSTSDDEPKLDAIDDEDAKSEGSQESDQEEGLDEDIFYSFDGEQDNSDKKRSFAESSEEDESSEEEKEEEENKEVSAKRAKKKQRKNMLKSLPVFASADDYAQYLDQDSD

Key:
[1] = target: B2; assay: SEC
HA-Rrp5p = HA-Rrp5p (S. cerevisiae, UniProt Q05022 1-1729); assay: SEC
Chain of HA-Rrp5p (Q05022 whole entry): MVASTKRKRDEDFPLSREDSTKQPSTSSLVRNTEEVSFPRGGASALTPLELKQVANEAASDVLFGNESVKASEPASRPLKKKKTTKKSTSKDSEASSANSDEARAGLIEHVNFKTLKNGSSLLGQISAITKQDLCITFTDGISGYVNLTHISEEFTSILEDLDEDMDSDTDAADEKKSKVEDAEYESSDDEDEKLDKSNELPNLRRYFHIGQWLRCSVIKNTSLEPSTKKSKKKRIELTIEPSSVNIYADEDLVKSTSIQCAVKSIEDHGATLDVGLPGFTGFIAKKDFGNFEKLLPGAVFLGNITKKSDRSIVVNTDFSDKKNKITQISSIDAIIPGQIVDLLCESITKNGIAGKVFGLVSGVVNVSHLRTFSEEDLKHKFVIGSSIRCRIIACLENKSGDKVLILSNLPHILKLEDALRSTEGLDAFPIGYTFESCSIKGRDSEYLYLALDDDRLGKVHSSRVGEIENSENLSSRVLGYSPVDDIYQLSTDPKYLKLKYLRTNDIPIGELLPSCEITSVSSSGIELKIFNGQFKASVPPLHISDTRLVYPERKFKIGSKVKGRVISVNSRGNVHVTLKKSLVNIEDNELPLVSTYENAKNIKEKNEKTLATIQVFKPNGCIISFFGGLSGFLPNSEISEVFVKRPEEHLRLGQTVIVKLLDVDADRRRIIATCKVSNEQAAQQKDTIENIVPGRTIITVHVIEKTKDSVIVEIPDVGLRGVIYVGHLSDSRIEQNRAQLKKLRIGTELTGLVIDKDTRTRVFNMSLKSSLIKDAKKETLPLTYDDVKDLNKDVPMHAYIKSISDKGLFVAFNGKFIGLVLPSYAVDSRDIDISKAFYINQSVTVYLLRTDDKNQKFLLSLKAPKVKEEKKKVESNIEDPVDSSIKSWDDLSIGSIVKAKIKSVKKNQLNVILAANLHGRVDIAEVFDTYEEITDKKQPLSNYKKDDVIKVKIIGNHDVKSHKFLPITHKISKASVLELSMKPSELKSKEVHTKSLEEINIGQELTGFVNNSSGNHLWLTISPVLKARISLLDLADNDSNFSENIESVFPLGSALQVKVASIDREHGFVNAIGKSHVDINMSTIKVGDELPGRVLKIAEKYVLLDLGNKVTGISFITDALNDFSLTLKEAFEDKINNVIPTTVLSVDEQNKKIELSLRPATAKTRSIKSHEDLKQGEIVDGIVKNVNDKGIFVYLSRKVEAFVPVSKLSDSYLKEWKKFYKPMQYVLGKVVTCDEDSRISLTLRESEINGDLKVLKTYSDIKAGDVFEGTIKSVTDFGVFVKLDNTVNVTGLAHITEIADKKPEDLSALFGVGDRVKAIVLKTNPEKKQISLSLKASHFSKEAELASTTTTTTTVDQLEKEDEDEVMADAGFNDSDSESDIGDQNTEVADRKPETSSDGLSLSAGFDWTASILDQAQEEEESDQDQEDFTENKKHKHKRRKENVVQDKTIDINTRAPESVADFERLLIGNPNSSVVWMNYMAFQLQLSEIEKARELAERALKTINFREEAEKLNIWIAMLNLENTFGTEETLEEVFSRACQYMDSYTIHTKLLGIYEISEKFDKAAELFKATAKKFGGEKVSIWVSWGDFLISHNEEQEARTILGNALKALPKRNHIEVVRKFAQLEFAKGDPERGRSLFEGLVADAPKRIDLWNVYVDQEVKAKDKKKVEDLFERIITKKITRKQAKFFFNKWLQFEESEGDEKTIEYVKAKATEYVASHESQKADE

B1: Flag-Noc2p (natural protein)
chain: MGKVSKSTKKFQSKHLKHTLDQRRKEKIQKKRIQGRRGNKTDQEKADAAGTREQQQLKKSAKEEVFKDMSVETFFEKGIEIPKENKKLKKKTTKEQSDEDSSSSEEEEDMGQSMAKLAEKDPEFYKYLEENDKDLLDFAGTNPLDGIDSQDEGEDAERNSNIEEKSEQMELEKEKIELSLKLVRKWKKQLHDSPSLKLLRNIISAFKVAVNLNKEENIEDYKYAITDEKAFHELMFMVLKDVPQAIQKMAPYKIVKGARTLPNGGNVSRVSSIVKSHAGSLLILLNDITNTETAALVLHSVNELMPYLLSYRRILKELIKSIVGVWSTTRELETQIASFAFLINTTKEFKKSMLETTLKTTYSTFIKSCRKTNMRSMPLINFQKNSAAELFGIDEVLGYQVGFEYIRQLAIHLRNTMNATTKKSSKINSAEAYKIVYNWQFCHSLDFWSRVLSFACQPEKENGSESPLRQLIYPLVQVTLGVIRLIPTPQFFPLRFYLIKSLIRLSQNSGVFIPIYPLLSEILTSTAFTKAPKKSPNLAAFDFEHNIKCTQAYLNTKIYQEGLSEQFVDLLGDYFALYCKNIAFPELVTPVIISLRRYIKTSTNVKLNKRLSTVVEKLNQNSTFIQEKRSDVEFGPTNKSEVSRFLNDVAWNKTPLGSYVAVQREVKEEKARLMRESMEEQDKERETEEAKLLNSLESDDDNEDVEMSDA
binding result [1]: binds

B2
binding result (HA-Rrp5p): binds

Reference: PMC3553968 (Nucleic Acids Research, 2012)
